Experimental data published in patent US20110245145.

System: HA-βarrestin2 1-185

endogenous Src of Hep3B hepatocytes
insulin-stimulated phosphorylations of Akt, GSK3P, and Foxo1: markedly reduced in the presence of βarrestin2 1-185
